Changes are numbered by the printed parent chain.
Tests used:
[1] = molecular target: T1, cynomolgus monkey FcγRIIa2 extracellular domain, His-tagged (cynomolgus monkey); assay: SPR Biacore, antibody captured, FcgR analyte
T1 construct: also called cyno FcγRIIa2; cynoFcgRIIa2; not shown: C-terminal His-tag
T1 chain: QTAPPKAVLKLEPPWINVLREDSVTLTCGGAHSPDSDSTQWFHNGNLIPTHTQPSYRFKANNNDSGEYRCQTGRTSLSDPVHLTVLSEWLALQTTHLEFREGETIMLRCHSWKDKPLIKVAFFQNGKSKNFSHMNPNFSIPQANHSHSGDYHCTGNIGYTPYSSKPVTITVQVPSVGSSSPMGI

[2] = molecular target: T2, cynomolgus monkey FcγRIIIaS extracellular domain with C-terminal His-tag (cynomolgus monkey, UniProt Q8SPW2 21-206 at identity 1.00)); assay: SPR; KD of SG1 / KD of variant
T2 construct: also called cyno FcγRIIIaS; FcgRIIIaS
T2 chain: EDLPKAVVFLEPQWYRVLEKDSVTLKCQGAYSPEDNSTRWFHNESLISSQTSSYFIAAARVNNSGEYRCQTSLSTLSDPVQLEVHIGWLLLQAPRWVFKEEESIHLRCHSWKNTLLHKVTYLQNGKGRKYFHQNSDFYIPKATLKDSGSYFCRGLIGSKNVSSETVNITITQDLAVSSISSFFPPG

[3] = molecular target: T3, cynomolgus monkey FcγRIIb extracellular domain with C-terminal His-tag (cynomolgus monkey); assay: SPR; KD of SG1 / KD of variant
T3 construct: also called cyno FcγRIIb; cynoFcγRIIb
T3 chain: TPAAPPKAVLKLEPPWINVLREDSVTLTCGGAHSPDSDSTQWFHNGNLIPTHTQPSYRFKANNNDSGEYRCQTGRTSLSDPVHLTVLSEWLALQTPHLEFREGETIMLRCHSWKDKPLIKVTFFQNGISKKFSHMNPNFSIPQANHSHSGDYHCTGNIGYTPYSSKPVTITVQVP

[4] = molecular target: T4, human FcγRIIaR extracellular domain with C-terminal His-tag (human, UniProt P12318 34-217); assay: SPR; KD of SG1 / KD of variant
T4 construct: also called human FcγRIIa (type R); FcgRIIaR
T4 chain: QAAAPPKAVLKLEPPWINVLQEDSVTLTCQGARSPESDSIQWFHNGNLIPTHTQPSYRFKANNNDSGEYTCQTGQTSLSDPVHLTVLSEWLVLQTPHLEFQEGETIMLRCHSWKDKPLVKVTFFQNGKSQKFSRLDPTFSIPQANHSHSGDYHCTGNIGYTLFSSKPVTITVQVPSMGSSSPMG

[5] = molecular target: T5, cynomolgus monkey FcγRIIa2 extracellular domain with C-terminal His-tag (cynomolgus monkey); assay: SPR Biacore, antibody captured, FcgR analyte
T5 construct: also called cyno FcgRIIa2; cynoFcγRIIa2; not shown: His-tag added to C-terminus
T5 chain: T1 chain

[6] = molecular target: T6, human FcγRIIaH extracellular domain with C-terminal His-tag (human, UniProt P12318 34-217); assay: SPR Biacore, antibody captured, FcgR analyte
T6 construct: also called human FcgRIIaH; FcγRIIa (type H); not shown: His-tag added to C-terminus
T6 sequence: T4 chain with R134H

[7] = molecular target: T7, cynomolgus monkey FcγRIIa3 extracellular domain with C-terminal His-tag (cynomolgus monkey); assay: SPR Biacore, antibody captured, FcgR analyte
T7 construct: also called cyno FcgRIIa3; cynoFcγRIIa3; not shown: His-tag added to C-terminus
T7 chain: T1 chain with K127I, N130K, H133P, Q142R

[8] = molecular target: T8, cynomolgus monkey FcγRIIIaS extracellular domain with C-terminal His-tag (cynomolgus monkey, UniProt A3RFZ7 21-206 (rhesus entry)); assay: SPR Biacore, antibody captured, FcgR analyte
T8 construct: also called cyno FcgRIIIaS; cynoFcγRIIIaS; not shown: His-tag added to C-terminus

[9] = molecular target: T9, human FcγRIIb extracellular domain with C-terminal His-tag (human, UniProt P31994 43-217); assay: SPR Biacore, antibody captured, FcgR analyte
T9 construct: also called human FcgRIIb; not shown: His-tag added to C-terminus
T9 sequence: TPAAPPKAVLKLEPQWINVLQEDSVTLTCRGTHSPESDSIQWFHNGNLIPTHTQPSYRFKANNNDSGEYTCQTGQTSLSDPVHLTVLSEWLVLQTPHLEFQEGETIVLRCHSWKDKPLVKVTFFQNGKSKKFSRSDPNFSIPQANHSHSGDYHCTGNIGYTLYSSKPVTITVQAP

[10] = molecular target: T10, human FcγRIIaR extracellular domain with C-terminal His-tag (human, UniProt P12318 34-217); assay: SPR Biacore, antibody captured, FcgR analyte
T10 construct: also called human FcgRIIaR; FcγRIIa (type R); not shown: His-tag added to C-terminus
T10 chain: T4 chain

[11] = molecular target: T11, human FcγRIIb extracellular domain, His-tagged (human, UniProt P31994 43-217); assay: SPR Biacore, KD(SG1)/KD(variant)
T11 construct: also called FcgRIIb (human); not shown: C-terminal His-tag
T11 sequence: T9 sequence
Protocol: (§1) The kinetic analysis of interactions between these antibodies and FcγR was carried out using BIACORE® T200 or BIACORE® 4000 (GE Healthcare). HBS-EP+ (GE Healthcare) was used as the running buffer, and the measurement temperature was set to 25° C. […] After the measurement, the antibody captured on the chip was washed off by allowing reaction with 10 mM glycine-HCl, pH1.5 and 25 mM NaOH so that the chip was regenerated and used repeatedly. The sensorgrams obtained as measurement results were analyzed by the 1:1 Langmuir binding model using the BIACORE® Evaluation Software to calculate the binding rate constant ka (L/mol/s) and dissociation rate constant kd (1/s), and the dissociation constant KD (mol/L) was calculated from these values. […] Regarding such interactions, KD values were calculated using the following 1:1 binding model described in BIACORE® T100 Software Handbook BR1006-48 Edition AE.

[12] = molecular target: T12, human FcγRIIIaV extracellular domain with C-terminal His-tag (human, UniProt P08637 17-208); assay: SPR Biacore, antibody captured, FcgR analyte
T12 construct: also called human FcgRIIIaV; not shown: His-tag added to C-terminus

[13] = molecular target: T13, human FcγRIIaR extracellular domain with C-terminal His-tag (human, UniProt P12318 34-217); assay: SPR (Biacore), KD of SG1 divided by KD of variant
T13 construct: also called human FcgRIIaR; FcγRIIa (type R)
T13 chain: T4 chain
Protocol: as §1

[14] = molecular target: T14, cynomolgus monkey FcγRIIa3 extracellular domain with C-terminal His-tag (cynomolgus monkey); assay: SPR; KD of SG1 / KD of variant
T14 construct: also called cyno FcγRIIa3; FcgRIIa3
T14 chain: T1 chain with K127I, N130K, H133P, Q142R

T12 sequence (P08637 17-208 F176V): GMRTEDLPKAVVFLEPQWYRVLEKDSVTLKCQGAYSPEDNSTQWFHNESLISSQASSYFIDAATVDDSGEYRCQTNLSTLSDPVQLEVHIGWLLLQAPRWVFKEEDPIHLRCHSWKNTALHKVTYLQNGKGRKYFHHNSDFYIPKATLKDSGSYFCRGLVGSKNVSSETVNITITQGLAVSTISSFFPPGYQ

B1: M103205H795-MY006/M103202L889-SK1 (antibody, human IgG1, kappa, name in EU numbering)
heavy: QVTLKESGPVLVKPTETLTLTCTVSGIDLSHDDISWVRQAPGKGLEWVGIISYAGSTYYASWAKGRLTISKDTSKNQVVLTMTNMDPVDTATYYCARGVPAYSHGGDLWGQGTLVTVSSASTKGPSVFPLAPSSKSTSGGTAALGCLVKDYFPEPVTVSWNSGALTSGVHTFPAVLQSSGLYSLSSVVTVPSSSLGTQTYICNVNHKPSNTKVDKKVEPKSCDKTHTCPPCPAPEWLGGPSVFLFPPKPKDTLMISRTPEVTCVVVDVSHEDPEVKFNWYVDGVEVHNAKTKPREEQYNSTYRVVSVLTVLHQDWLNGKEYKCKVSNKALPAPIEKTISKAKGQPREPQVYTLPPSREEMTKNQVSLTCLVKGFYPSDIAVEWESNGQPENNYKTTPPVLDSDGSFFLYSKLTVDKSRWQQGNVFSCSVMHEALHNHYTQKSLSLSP
light: DIVMTQSPATLSLSPGERATLSCTSSQSVYHANWLSWFQQKPGQPPKLLIYWASTLAYGVPSRFSGSGSGTDFTLTISSLQPEDAATYYCAGGYGGGRYAFGQGTKVEIKRTVAAPSVFIFPPSDEQLKSGTASVVCLLNNFYPREAKVQWKVDNALQSGNSQESVTEQDSKDSTYSLSSTLTLSKADYEKHKVYACEVTHQGLSSPVTKSFNRGEC
notes: Substitution introduced into M103205H795-SG1; EU numbering
Binder B1 has a Kd [1] of 1900 nM.

B2: M103205H795-MY309 (heavy chain) with M103202L889-SK1 (light chain) (antibody, human IgG1, kappa, name in EU numbering)
heavy: QVTLKESGPVLVKPTETLTLTCTVSGIDLSHDDISWVRQAPGKGLEWVGIISYAGSTYYASWAKGRLTISKDTSKNQVVLTMTNMDPVDTATYYCARGVPAYSHGGDLWGQGTLVTVSSASTKGPSVFPLAPSSKSTSGGTAALGCLVKDYFPEPVTVSWNSGALTSGVHTFPAVLQSSGLYSLSSVVTVPSSSLGTQTYICNVNHKPSNTKVDKKVEPKSCDKTHTCPPCPAPELLTGPSVFLFPPKPKDTLMISRTPEVTCVVVDVSEEDPEVKFNWYVDGVEVHNAKTKPREEQYNSTYRVVSVLTVLHQDWLNGKEYKCKVSNKALPKPIEKTISKAKGQPREPQVYTLPPSREEMTKNQVSLTCLVKGFYPSDIAVEWESNGQPENNYKTTPMVLDSDGSFFLYSKLTVDKSRWQQGNVFSCSVMHEALHNHYTQKSLSLSP
light: B1 light
notes: Substitutions introduced into M103205H795-SG1; positions in EU numbering
B2 was tested, and the “KD fold (SG1 = 1)” value [2] was 0.3 fold, the “KD fold (SG1 = 1)” value [3] was 2.5 fold and the “KD fold (SG1 = 1)” value [4] was 4.2 fold.

B3: M103205H795-MY172/M103202L889-SK1 (antibody, human IgG1, kappa, name in EU numbering)
heavy: B2 heavy with T238N, K332A, M398G
light: B1 light
notes: EU numbering
With B3 the “KD fold (SG1 = 1)” value [5] was 1.8 fold, the Kd [5] was 2800 nM and the Kd [6] was 1700 nM. For the same binder, the Kd [7] was 1100 nM, the “KD fold (SG1 = 1)” value [8] was 0.17 fold and the Kd [8] was 3500 nM.

B4: M103205H795-MY177/M103202L889-SK1 (antibody, human IgG1, kappa, name in EU numbering)
heavy: B2 heavy with T238N, K332A, M398N
light: B1 light
notes: EU numbering
B4 was tested, and the Kd [9] was 1100 nM, the Kd [6] was 1000 nM and the “KD fold (SG1 = 1)” value [8] was 0.12 fold. For the same binder, the Kd [8] was 2900 nM, the “KD fold (SG1 = 1)” value [10] was 0.1 fold and the Kd [10] was 2000 nM.

B5: M103205H795-MY041/M103202L889-SK1 (antibody, human IgG1, kappa, name in EU numbering)
heavy: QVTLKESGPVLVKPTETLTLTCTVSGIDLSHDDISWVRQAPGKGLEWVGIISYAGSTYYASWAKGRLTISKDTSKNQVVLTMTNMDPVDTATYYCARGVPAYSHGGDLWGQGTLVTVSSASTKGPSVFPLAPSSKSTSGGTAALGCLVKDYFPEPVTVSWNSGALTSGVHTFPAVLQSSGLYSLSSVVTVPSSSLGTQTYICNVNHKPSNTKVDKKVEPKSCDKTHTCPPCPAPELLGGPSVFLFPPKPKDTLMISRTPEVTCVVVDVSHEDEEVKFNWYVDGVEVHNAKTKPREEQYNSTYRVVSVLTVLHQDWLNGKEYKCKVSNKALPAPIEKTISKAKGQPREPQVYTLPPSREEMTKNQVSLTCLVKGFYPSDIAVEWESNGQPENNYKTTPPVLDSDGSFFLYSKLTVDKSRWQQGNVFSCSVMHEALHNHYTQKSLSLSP
light: B1 light
notes: as for B1
For B5, the “KD fold (SG1 = 1)” value [11] was 1.5 fold.

B6: M103205H795-MY276 (heavy chain) with M103202L889-SK1 (light chain) (antibody, human IgG1, kappa, name in EU numbering)
heavy: B2 heavy with T238I, E270D, M398K
light: B1 light
notes: as for B2
B6 was tested, and the “KD fold (SG1 = 1)” value [2] was 0.3 fold and the “KD fold (SG1 = 1)” value [3] was 5.6 fold.

B7: M103205H795-MY178/M103202L889-SK1 (antibody, human IgG1, kappa, name in EU numbering)
heavy: B2 heavy with T238N, K332A, M398Q
light: B1 light
notes: EU numbering
B7 was tested, and the Kd [9] was 1300 nM, the “KD fold (SG1 = 1)” value [6] was 0.6 fold and the “KD fold (SG1 = 1)” value [8] was 0.17 fold. For the same binder, the Kd [8] was 3000 nM and the “KD fold (SG1 = 1)” value [12] was 0.15 fold.

B8: M103205H795-MY179/M103202L889-SK1 (antibody, human IgG1, kappa, name in EU numbering)
heavy: B2 heavy with T238N, K332A, M398R
light: B1 light
notes: EU numbering
B8 was tested, and the Kd [9] was 1200 nM, the “KD fold (SG1 = 1)” value [5] was 2.8 fold and the Kd [6] was 1100 nM. For the same binder, the “KD fold (SG1 = 1)” value [8] was 0.13 fold and the Kd [8] was 2700 nM.

B9: M103205H795-MY210/M103202L889-SK1 (antibody, human IgG1, kappa, name in EU numbering)
heavy: B2 heavy with T238N, E270D, K328T, M398P
light: B1 light
notes: substitutions in EU numbering, introduced into M103205H795-SG1
In the case of B9, the “KD fold (SG1 = 1)” value [5] is reported as 6.1 fold, the “KD fold (SG1 = 1)” value [6] is reported as 0.8 fold and the “KD fold (SG1 = 1)” value [8] is reported as 0.15 fold. The “KD fold (SG1 = 1)” value [12] was 0.03 fold.

B10: M103205H795-MY525 / M103202L889-SK1 (antibody, human IgG1, kappa, name in EU numbering)
heavy: B2 heavy with A233T, S241V, E270D, M398P
light: B1 light
In the case of B10, the “KD fold (SG1 = 1)” value [13] is reported as 6.9 fold.

B11: M103205H795-MY316 (heavy chain) with M103202L889-SK1 (light chain) (antibody, human IgG1, kappa, name in EU numbering)
heavy: B2 heavy with T238L, Q297L, M398K
light: B1 light
notes: as for B2
In the case of B11, the “KD fold (SG1 = 1)” value [2] is reported as 0.15 fold, the “KD fold (SG1 = 1)” value [14] is reported as 0.8 fold and the “KD fold (SG1 = 1)” value [3] is reported as 0.9 fold. The “KD fold (SG1 = 1)” value [4] was 1 fold.

B12: M103205H795-MY289/M103202L889-SK1 (antibody, human IgG1, kappa, name in EU numbering)
heavy: B2 heavy with T238N, E270H
light: B1 light
notes: as for B9
In the case of B12, the “KD fold (SG1 = 1)” value [9] is reported as 1.8 fold, the “KD fold (SG1 = 1)” value [6] is reported as 0.8 fold and the “KD fold (SG1 = 1)” value [7] is reported as 1 fold. The “KD fold (SG1 = 1)” value [8] was 0.07 fold and the “KD fold (SG1 = 1)” value [10] was 0.3 fold.
